Results as given in patent publication US20240166688.

Target: T1, peptide of SEQ ID NO: 1
T1 chain: GKCSTRGRKCCRRKK

B1: HDAC5 in RAW 264.7 cells (protein)
chain: MNSPNESDGMSGREPSLGILPRTPLHSIPVAVEVKPVLPGAMPSSMGGGGGGSPSPVELRGALAGPMDPALREQQLQQELLVLKQQQQLQKQLLFAEFQKQHDHLTRQHEVQLQKHLKQQQEMLAAKRQQELEQQRQREQQRQEELEKQRLEQQLLILRNKEKSKESAIASTEVKLRLQEFLLSKSKEPTPGGLNHSLPQHPKCWGAHHASLDQSSPPQSGPPGTPPSYKLPLLGPYDSRDDFPLRKTASEPNLKVRSRLKQKVAERRSSPLLRRKDGTVISTFKKRAVEITGTGPGVSSVCNSAPGSGPSSPNSSHSTIAENGFTGSVPNIPTEMIPQHRALPLDSSPNQFSLYTSPSLPNISLGLQATVTVTNSHLTASPKLSTQQEAERQALQSLRQGGTLTGKFMSTSSIPGCLLGVALEGDTSPHGHASLLQHVCSWTGRQQSTLIAVPLHGQSPLVTGERVATSMRTVGKLPRHRPLSRTQSSPLPQSPQALQQLVMQQQHQQFLEKQKQQQMQLGKILTKTGELSRQPTTHPEETEEELTEQQEALLGEGALTIPREGSTESESTQEDLEEEEEEEEEEEEDCIQVKDEDGESGPDEGPDLEESSAGYKKLFADAQQLQPLQVYQAPLSLATVPHQALGRTQSSPAAPGSMKSPTDQPTVVKHLFTTGVVYDTFMLKHQCMCGNTHVHPEHAGRIQSIWSRLQETGLLGKCERIRGRKATLDEIQTVHSEYHTLLYGTSPLNRQKLDSKKLLGPISQKMYAMLPCGGIGVDSDTVWNEMHSSSAVRMAVGCLVELAFKVAAGELKNGFAIIRPPGHHAEESTAMGFCFFNSVAITAKLLQQKLSVGKVLIVDWDIHHGNGTQQAFYNDPSVLYISLHRYDNGNFFPGSGAPEEVGGGPGVGYNVNVAWTGGVDPPIGDVEYLTAFRTVVMPIAQEFSPDVVLVSAGFDAVEGHLSPLGGYSVTARCFGHLTRQLMTLAGGRVVLALEGGHDLTAICDASEACVSALLSVELQPLDEAVLQQKPSVNAVATLEKVIEIQSKHWSCVQRFAAGLGCSLREAQTGEKEEAETVSAMALLSVGAEQAQAVATQEHSPRPAEEPMEQEPAL
- Phosphorylation ratio (Phospho explorer antibody microarray, peptide + LPS against LPS alone): phosphorylation of HDAC5 was inhibited the most (0.278)
